Test [1] has as its target T1, recombinant huCD137-Fc (R&D; cat. no. 838-4B) (human, UniProt Q07011 24-186).
T1 construct: Bought; not shown: Fc of bought fusion protein, not described
Nature of the test: competition ELISA: CD137L-muCD8 biotin on coated CD137-Fc, IgG 20 ug/ml. Background: In an ELISA, binding on a coated surface is turned into a signal by an enzyme label.

Test [2] has as its target T1, recombinant huCD137-Fc (R&D; cat. no. …). Nature of the test: CD137L blocking assay; competitor CD137L; format not told in the excerpt.

The values below come from patent US11685786 (MERUS N V, dated 2023).

B1: MF6861 x MF6861 bivalent monospecific CD137 IgG (antibody, V domains shown)
VH: QVQLVQSGAEVKKPGASVKVSCKASGYTFTSYGISWVRQAPGQGLEWMGWISAYNGNTNYAQKLQGRVTMTTDTSTSTAYMELRSLRSDDTAVYYCARDSDGYGPKAFDYWGQGTLVTVSS
VL: not shown
notes: bivalent IgG; copies: 2 + 2
Turning to B1, the “% CD137L block” value in test [1] and in test [2] was 50% throughout.

B2: MF6744 x MF6744 bivalent monospecific CD137 IgG (antibody, V domains shown)
VH: EVQLVQSGAEVKKPGESLKISCKGSGYSFTSYWIGWVRQMPGKGLEWMGIIFPDDSDTRYSPSFQGQVTISADKSISTAYLQWSSLKPSDTAMYYCVRLGGYSGYAEDFVDFWGQGTLVTVSS
VL: not shown
notes: bivalent IgG; also called PG6744; PB14135; copies: 2 + 2
With B2, the “% CD137L block” value in test [1] and in test [2] was 67% throughout.

B3: MF6795 x MF6795 bivalent monospecific CD137 IgG (antibody, V domains shown)
VH: EVQLVQSGAEVKKPGESLKISCKGSGYSFTSYWIGWVRQMPGKGLEWMGIIYPDDSDTRYSPSFQGQVTISADKSSSTAYLQWSSLKASDTAMYYCASFYTGIVGATGAFDVWGQGTTVTVSS
VL: not shown
notes: bivalent IgG; copies: 2 + 2
On to B3, for which the “% CD137L block” value in test [1] and in test [2] was 32% each time.

B4: MF6825 x MF6825 bivalent monospecific CD137 IgG (antibody, V domains shown)
VH: QITLKESGPTLVKPTQTLTLSCTFSGFSLSTSGMSVGWIRQPPGKALEWLALIYWNDDKYFSPSLKSRLTITKDTSKNQVVLTLTNMDPVDTATYYCAHTLWGSDDVFDVWGQGTMVTVSS
VL: not shown
notes: bivalent IgG; also called PB14162; copies: 2 + 2
As for B4, the “% CD137L block” value in test [1] and in test [2] was 89% each time.

B5: MF6783 x MF6783 bivalent monospecific CD137 IgG (antibody, V domains shown)
VH: QVQLVQSGSELKKPGASVKVSCKASGYTFTNFAMNWVRRAPGQGLEWMGWINTNTGNPTYAQGFTGRFVFSLDTSVNTAYLQISSLKAEDTAVYYCARDWGVIGGHYMDVWGKGTTVTVSS
VL: not shown
notes: bivalent IgG; also called PG6783; PB14143; copies: 2 + 2
On to B5, for which the “% CD137L block” value in test [1] and in test [2] was 44% each time.

B6: MF6798 x MF6798 bivalent monospecific CD137 IgG (antibody, V domains shown)
VH: QVQLVQSGSELKKPGASVKVSCRASGYTFTNFAMTWVRQAPGQGPEYMGWINTNTGNPTYAQGFTGRFVFSLDTSVNTAYLQISSLKAEDTAVYYCARDWASVMVRGDLDYWGQGTLVTVSS
VL: not shown
notes: bivalent IgG; copies: 2 + 2
On to B6, for which the “% CD137L block” value in test [1] and in test [2] was 44% throughout.

B7: MF6788 x MF6788 bivalent monospecific CD137 IgG (antibody, V domains shown)
VH: EVQLVQSGSELKKPGASVKVSCKASGYTFTNFAMNWVRQAPGQGLEWMGWINTNTGNPTYAQDFTGRFVFSLDTSGNTAYLQISSLKAEDTAVYYCARDWGLVAIGYFDYWGQGTLVTVSS
VL: not shown
notes: bivalent IgG; also called PB14193; copies: 2 + 2
Turning to B7, the “% CD137L block” value in test [1] and in test [2] was 55% throughout.
